Assay: label from the status in PepcDB records
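Note: failed if final PepcDB status was selected cloned or expressed and not failed if soluble or beyond.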

MIRTAKLALVAAALSTTALSPLALAAPAPAQPAATASIAVPPIVYQQRVLANGMKVFTSRDTSTPNVSVQVWYGVGSKDDPQGRSGFAHLFEHLMFKATRNMPNETVDRLTEDVGGFNNASTWDDFTNYYEVVPANHLERLIWAEADRLKSLVIDEAVFASERDVVKEELRQRVLADPYGRFFALSIPQQSFAVHPYQRPGIGSIEELDAATVDDVRAFHRTYYRPDNAALIIVGNFDQTKLDAMIDKYFGSLTTPAGAIPKVTAVEPARTGPKTVNTYGPNVPLPALAITWLAPAAADKDAPALAVLDAILTAGKSSRLYDSLVYDQKIAQSVFSSAPNNAQPGLFYVGAIMAGGKTVAQGEAALRAQVARVRDGLVTPAELAEAKAGLLADAVRRREEIDGRGFAIGYALQTEGDAAAANSSLAKLQAVTAADIQRVARQYLADDRRTVINYLPEKDRPAGEKDATPPIPKVASVKYDGPITTLAPEAEREKPPAVAAPVPAVMPTPAEKTLANGLRVIVAKSSELPLITSTLTVKGGASSDPAGLAGTSSLTSELLTEGTATRSATQVARETEALGANLAAGSGWEAASLTLSVTANNADPAMAIMADVAQNPAFKTEELDRVRAETLDGLSVAFQRPGSLASFATSPVLYAGSAYGHVAGGTPGSLPKIKREDLAKTHAAYWRPDNAVLVVTGNLSPEAGFALAEKAFGGWKKPATPPPAPPAAPTGYQPRNVVIDLPGTGQAAVVLAKPAITRADPSYYQGVVANTVLGVGFSSRLNQEIRIKRGLSYGAGSSLTPQGQFGGFSARVQTKNPSAGEVISLTRAELSRLANEPASVGELAARKSVLVGGFGRDLGTSEGLAGILGNLAVYGVPLTEIQSYAAKVEAVTPEQVQAFAKAKLDPTQMSVIVAGDAKAMGEALAKVAPNATVIPAAKLDLDAPGLTQ
protein production: failed

MTASFPTRVYLLRHAKAAWAAPGERDFDRGLNEAGFAEAEIIADLAADRRYRPDLILSSTAARCRQTTQAWQRAFNEGIDIVYIDEMYNARSETYLSLIAAQTEVQSVMLVGHNPTMEATLEAMIGEDLLHAALPSGFPTSGLAVLDQDDSAASGKNRWRLIDFLAPGK
protein production: not failed

MSAGLTGIRVAVIGGDDREIYMIPELQKLGAYIVGVGFEKAAPIQGVTLLSSPLEAVEKADVLLFPMYGTDERGDVKAKYSETPIVLNKELLKAVSPKVPLFIGWARPALKSAAEMLGIQIVETANLDQLAILNSIPSAEGAIQMAMEASPITIHGSESFVLGLGRCGWTLARTLKGMGAHVTGVARKPADLARALEMGLEAVHFADLDEKIGKAELIFNTVPHLILDKVMLEQVNHEAVIIDIASLPGGTDFEYAKAKGIKAMLAPGLPGKVAPKAAGKILAQVYPQLILRHLTTKNASLKF
protein production: failed

HERVGNLNQPIEVTALYSFEGQQPGDLNFQAGDRITVISKTDSHFDWWEGKLRGQTGIFPANYVTMN
protein production: not failed

MNAMLVGADTLGNIPDVLQNYGITIHRHLSGRNSSHQRKVDRLPAGTDLLILFTDFLGHNVMRHFRELAAEQQIRFIACRRSVCALKQSLTGAGMCEQPCAACPQRSGGDKPVKRKR
protein production: failed

MTYRAEVDGLRAIAVTLVILFHSGVEQFAGGFIGVDVFFVISGYLITTIVINDLENQKFSLGDFYERRIRRILPLLLVVIAVSYLMSWWLFLPQAHKDVGQLAVSSILSSSNILLYLKGHNYFGLEDQANPLFHTWSLGVEEQYYIVIPLLLMLLARGKNAFYLTFFIAVFALSLMAIVYTSNDPDFAFYMIFSRAWELATGSLLALVMRKAQVQSNDTLATIGIVLILASALLFEKSQDGAGITLLVPVIGSALVILFASKDNVCGKLLSLKWVVFVGLISYSLYLWHIPLFVFYRYMLDATQDVNISLYIAALFVLSYFTWRFVEKPFRSRKAMSMRTVSAVVVLLTLPLLTFGVIGHQNGGFPERSAFFEAMRINNGYGLDCNGNTDVNDVCSSAPQPTIAVLGNSHSMVYVKRLSEVTPTGVVQLTQDSCAVGYVDILEAAGSISCRQFFKQAVDTILRTPSIRRVVISSNFNKELSQADYEASLTGLLNELEGKEVVVFGPTPSAPFAVGECLWKARLFGEQEESVCDFSPKRHHPQNVAKLVNYFDRFEHVEFVDLTDAICRNGVCRMKVGANNAMYTDDSHLSYKGAELVLGHYHNSTNETQQFTYDRQ
protein production: failed

MSKVDTIQEKLIPPIMKFANSKIITAIKDGVIITMPLTLVGSIFLLIANFPIKSWNSWMTAIFGPNWAVPLTQVSGSTFDIMAIAAVIGIAAQYSKNEGQDPVTAGLLGAVAFLIIMPSYSPINIGDKVGGIVMKHADKVQSVIPKAWTGGKGMIAALIIGVLTGYIYSWFLKRDIRIKLPESVPSGVSNAFSALIPGAVIITGSMLIFIFFNIVTGATALEWIYKVLQIPLQGITDSLGGAIAIPFVISFFWWFGVHGATLIGGVMNSIYQANTLANQDVFKAGHKLIASGAGKNAHIVCQQFQDNFVTLGGSGITLGLVAACFLFARSQRLKQLGKLALVPGCFNINEPVLFGLPIVLNPLMFIPFLICPLVSGILTYFAIYTGLVPCFTAVQAIWTTPPVLSGLIVAGWRGAVLQLIIIAIAAIVYFPFFKSLDKQYYQEEISGEAE
protein production: failed

MGHFDTPSLSRDAALLPDTGEPGFGVYVHWPFCAAKCPYCDFNSHVRHQPVDQERFAAAFLKEMAAVRAMSGPKTVTSIFLGGGTPSLMKPETVSAILDGIARHWHVPAGIEITMEANPSSVEAERFRGYRAAGVNRVSLGVQALNDRDLKFLGRLHDVADALKAIRLAREIFPRMSFDLIYARPDQTVDEWEKELKEAISYAVDHLSLYQLTIEEGTPFFGLHKSGKLIVPDGEQSALLYEATQEITAREGMPAYEVSNHARPGAESRHNLTYWRYGDYAGIGPGAHGRLTRGHEKLATATERKPEAWLEMVERDGHGILDEERLGFEEQSDELLLMGLRLREGVDLARWQQLSGRELDPKREEFLLEHKFIERIGNSRLRCTSAGMLILDSVVADLAC
protein production: failed

MKFDNKAPIYIQIMDKIKIDIINGTLKPGDKLPSVREMAVKFKVNPNTLQRVYQELERENITYTQRGTGSFVREDSDMIINLKKEMASEVIENFIENIKEFGFGNKDILKIVEDKLNEEEK
protein production: not failed

MEEDVPEAEKLMCPKEVVEKNKDKQEEEEDEKGAKGGILNNLISNFMDCTTTTVEGKSSENIQKSLCEDEDEKEQESPSVGILEKIISHLPEDVAPTTDEAAILIHSAID
protein production: failed

MSEDLMDLSPEEGIERFLRHREPSVRESTMRNAKTRLRFFNEWCEERDIENLNNLTGRDLADFVAWRRGDIAALTLQKQLSTIREALRYWADIEGVDDGLAEKVHAPELEHHHHHH
protein production: failed

RPSWGYARSMAGRLAGATAVLDVQTGGGEVLDFALEAAGPHRAPLVAATEGWAPNVAQATRLLRPRGVPVVASADDAPLPFADGAFDLVVSRHPVEPHWDEVARVLMPGGTYFAQHVGPASVFELIEYFLGPLPEDSRRHRDPERERADAEAAGLEVVELRAERLRMEFLDIGAVVHFLRKVVWMVPGFTVEAYRDRLRDLHERIEADGPFVAHSSRHLFDVRKP
protein production: failed

METPAVSLLVAVYNTETYIRTCLESLRNQTMDNIEIIIVNDGSADASPDIAEEYAKMDNRFKVIHQENQGLGAVRNKGIEAARGEFIAFIDSDDWIEPDYCEQMLRTAGDETDLVICNYAAEFEDTGKTMDSDIAQTYQDQPKEHYIKALFEGKVRGFSWNKLYRRSMIEAHRLSFPLRGELEHVEDQFFSFRAHFFARSVSYVKTPLYHYRIHLSSIVQRYQKKLFESGLALYETNAAFLQENNKLEEYRKELDTFIVLHSSICMLNEWKTSGSRRLFEKLRNVGVICADPVFQESLSKTGTAPFDAKRSCLLLMAKYRMIPFVAMASAVYQRVIEYKMRNRG
protein production: failed

MGGPAYDCLTNPLGAVRFSFVNALSSGYDPASSVGKDWGVVDLFRHYFSDESAISQVPILDSSSIKWVQPKTLVRFRGMIQDMLGNEFYAGAYKDDSTWRTNKYSDVSQFPEGSSTEIQVWERRLLYCVPVPGKNQWTECSSQELKNRFLDLTGQNREKRVRVDEEMTDSMDSSKVGEATSSASESQVPQTSGIPPATSADSLPCLVKIYDSPESDLKLNDVVEFLGVLTFDPIVMMDTDTLDENSDALSEAESVQMPSGKQPKSPQIFKEIRESLMKYLTGLLGNDHIAAQFLLLHLLSKVHGRVDNVAVGKLSLNLIHLNKESMSIFGTQLSGALKSLLPFTQSIPLTIEYLNTASFGPKKDYGINRLMPGVLQIADGTHLILDETELQPGTLNSVGVENANLLKNLLECQKVEYDFQYYKMEMATDVQMLIFSEGKSNIMPADLVLPLQPSQVNSLEVITPETAETWRCYLATCKSLSHSIGQELQQVVENDLVAARQTDRSLGSQDLSRLLTMARMMSVSYGETTLSLEHWQMVLELERLRKERLK
protein production: failed

MSLTADPPACTVPAAGVSSTHKLVNGGAEKIVFKIKSSNNNEYRIAPVFGFVDPSGSKDVVITRTAGAPKEDKLVVHFASAPADATDAQAAFVAVAPAGTVTIPMSATA
protein production: not failed

MTYRDFIGRLKENGKLVEIQQPVSPIFEASRIAKKTKGPVLFHNVSGSKVIMNLLGSRDELSSMLGVPKEEIIKKLSEVSPEGEVRLVPGSPTLEVIESEVDLTKLPILTHFEKDGAPYITAGIVVSEYEGVMNASIHRLMLVGKDKLAARLVPPRHTYLLHKKAAEKGETLPVAIVLGCDPTIIYATSTRVPAGKEFEYAAALRGTPVEVFECSNGIKVPHSEIILEGYIDTKERVDEGPFVDITGTYDMVRKEPVIHITRIIHRKDPIYHGILPAGPEHLLMMGVPYEPRIYRAVGEVTTVKNVVLTEGGCCYLHAVVQIEKQTEGDAKNAIMAAFAAHTSLKHVVVVDEDINIFDPNDVEFAIATRVKGDMDILTITNVRGSSLDPRGASDGTTTKVGIDATKVLIEKENFERAIIPEELEHHHHHH
protein production: failed

MSDKFNQFINRVLSHEGGYANHPKDPGGETNWGITKRTAQANGYNGSMRAMTREQAISIYRKAFWERYRADQMPEAVAFQFFDACVNHGYGNAARMLQRAAGVPDDGVIGAVSLKAINSLPENDLLLRFNAERLVFYTKLGTFTSFGKGWVRRVAQNLIHASADNTD
protein production: not failed

MLHRSPKRMVAVALFLACLVISLTTVTFAAPAPTIQIQNPMVEGIRSPLRIASDSLGGVYVSDSLAKGVLKYDVVGHLAQTIKTAAPPQGIAVASDGTLLVGQGTYVSMYSAAGQEIGKLGAGEGQFKMADGITVDDDGSIYVVDCLDNSVQIFNAAGSFVKKFGSFGTTPGKFSTPSGIAFEKVSRQVAVVDTRTGRIQFFDKTGAYVRTIGSFGTNPLRFTAPQGVSFEYSSGSTPVLKRMYVVDTFQSTVQAIDPAATPVFLSYIGTYGSGNGKLMVPSDVLFDQATGRLLVVNGFGNVSVYGVDGGGVSVAVDLIPPALTINPVVSPFMSPTLDLSGTVEAGARLTIATGGTTTVGAISFPTPTTWQTTLSGFAPGGTTITVTARDAANNATNQSVTVSYLQSGPMLTMEPLPTFTADTFQQLSGLVDPGSVVTVTNATTGASAKALVFGNTWSYRLPLAAGANSITVKAEKSMSAATTVSATTTLDAIPPALAVSALADGSYTSGQVQNIQVMVTDANLDVVTLNGQQIVPVNGSYSTAITLKPGPNVIMAAAVDLAGNVTTDIRTIIYDGTRPVVSFTTPAEGTYVTSDHVSVSGIVDETAVVTVAGLPARMDGTSWSADVPLVPGMNTIDVVAVDLAGNVGSVKRTVTYDTEAPALVVSAPSQDVVTNRPTFGFAGNVTDPSPVTLTAEVDGAPVAVTVTDGSFTLAVTFANEGSHAVTFTATDAAGNASRVTRTVIYDGTAPALTLDPVNTPYPSVLTGTVEAGAAVTVEDRNGSAGTVTVSGEKWNAALEVGGYDAASLAVRATDVAGNSTVRSLVVNVPDGDLNGDGAVTVHDVILALRMFTRQMVPTANQLAHGDIGPLYQGKAKPNGVVDLVDAILIMRKALGMPSW
protein production: failed

MVNVDHDRFTTLVHELNQAKYEFHYKCAELVSNHEAAQPKKVLDEKKMDLEKLYEKVKEVMKKMVAFAENPKKEG
protein production: failed

YAHLRAGALRRLLQAQRLLPTGVRFLVLEGYRPPQLQRRYFEEYAATMRAAHPDEAPDRIRELTSAYISPPEVAPHVSGGAVDLTLCGADGTELPLGTEVNATPEESEGACRTAAPNISVEARANRAVMDRALTAVGFVNYPTEWWHWSYGDR
protein production: failed

From a protein production outcome set (Wang et al. 2014)
